{"source": "the DeepSol protein solubility set", "data": [{"experiment": "soluble on expression in E. coli; label from the status in PepcDB or PDB records", "values": [{"sequence": "MARKVIDVRIVNAATAEQESFIKELSMELIHDVFPLYFSELDIQRLKKKGVLSLNNHYYQGTLKEAFQIMACLQMIHIILTKPSPHSDLSDQAIFEKNSKMLNDFGIYFPFAFSDFQKKTNKAFFGQRRLILEHHHHHH", "soluble on expression in E. coli": "not soluble"}, {"sequence": "MSLTYEKLYELRQTLRPTTKDGLYTDNEKNREILTVRWSGNTENPKNFSAVAIGINPSKANDERSDKTLTQLARFLDMYGFTNFKMLNIFSSYSTQQTGIRANTQTDFSKFKGCLEDADMIILAWGTDRGAYKDEKNRILEFLKAEKFMEKVFCISETGNSSDTRHPSRISYSYQLVQFEESAEGGSHHHHHH", "soluble on expression in E. coli": "soluble"}, {"sequence": "MGSDKIHHHHHHMADQKETIKPFKKIAIFDIFSGENSEIICSDKSKIAAQVNKWVNRAISNGADSCYVRLYEANKENIDTIIENLSYKILQIILPFSLNYKSSLVSAFHFREKDQIKMPEAKSNNVLFGKSCHSLKSIEEAEYEGLDYVFFSPIFATPTHPEAKGIGLDMLTQACKSTQMKVFALGGINENNYQKCLDAGASGIAAISMFKK", "soluble on expression in E. coli": "not soluble"}, {"sequence": "MSLSINSETLVNHMNHEIAAIQPSDILAFNAEIANIPGIVRLTLGEPDFNTPEHVKQAAIESIEADESHYAPSNGTLALRTAAAEFLAAKYDVHYDPASEVIITAGATGGIYTALTSILNPGDEVLIPTPIFPLYIAIVKLSGATPVFMDTSDNGFVLSPDQLQTTLAAHPKTKAVVLNFPSNPTGVTYRHDDLKALAAVLADQPIFVLSDEIYSELTYGEPHESIANYLPTQTILLNGVSKSHAMTGWRIGIMCAPKAITAQLGKIHQFTVTSTTTNAQAAAAGLKQLTSRTAGVDTIDIPAAKAAGLVVTNVEGHHHHHH", "soluble on expression in E. coli": "not soluble"}, {"sequence": "MAHHHHHHMPPPPPAPPPPPPPPPPPKATEGNSSSTVGGAASALFAEIRQGGDNITSRLRHVTDDQKAYKQNIQHGAVDFSDLDAKKAEAEAKRQQKQKQPETTAAEEPVTRLEGDKRWVVKHHKGTPSEPCKVTLEDVNMRHAVHIHGCDNTFVEVKGKVNTVSVVSCNKAQVILESVVSALEVLKSDSVDVTVRRFVPTAMVEKSTSVNLFLMDVEEAPNTEIVTACSSAVNVNFPTVEDPTDILERPLPEQFVSRIVRDNRGKYKIETKPNEVA", "soluble on expression in E. coli": "soluble"}, {"sequence": "MAHHHHHHMLRKTNLFLFAASRALMSGGSSHGPTPYQDKSYPVQPHNLNELQQPPDSWRKSPIMSKLMDQSLPVYDDVVTGVGRLYWQEPARVWHLFEADDTLMLEEHDREEWNDRPYVAVNHLYEPPIGSEERPIRVEGTGNPGDQQIVLCFGNCAPHVPQSNYYMMMKGYSKTKCPMCQQWFYVHNRPWLVMHPDWTDEPAADEGPAYTFAEIEAEFDRDFHEFGVYLNAE", "soluble on expression in E. coli": "not soluble"}, {"sequence": "MKAYRIHVQGIVQAVGFRPFVYRIAHAHNLKGFVRNLGDAGVEIVIEGNEEDIEGFLVDLYKKKPPIARIDKVEKEEIPPQGFDRFYIEKSSTEKKGEGDSIIPPDIAICDDCLKELFDPTNKRYMYPFIVCTNCGPRFTIIEDLPYDRENTAMREFPMCEFCRSEYEDPLNRRYHAEPVACPTCGPSYRLYTNDGNEIVGDPLRKAAKLIDKGYIVAIKGIGGIHLACDATREDVVVELRKRIFRPQKPFAIMAKDLETIRTFAYVSPEEEEELTSYRRPIVALKKKEPFPLPENLAPGLHTIGVMLPYAGTHYILFHWSETPVYVMTSANFPGMPMIKDNEEAFEKLRDVADYLLLHNRRIPNRADDSVVRFVDGRRAVIRRSRGFVPLGIEIPFEYKGLAVGAGLMNAFGVSKSGKVYPSQYIGDTSKIEVLEFMRDAIRHFFKILRIDSLDLVVADLHPSYNTTKLGMEIAEEFGAEFLQVQHHYAHVASVMAEHNLEEVVGIALDGVGYGTDGKTWGGEVIYLGYEDVERLAHIEYYPLPGGDLASYYPLRALIGILSLNHDFEEVEKIIREFCPNAIKSLKYGETEFKVILRQLSSGINVAYASSTGRVLDAFSVLLNVSYRRHYEGEPAMKLESFAYQGKNDLNLTVPIEGEEIKVSELFEEVLELMGKVNPRDIAYSVHLALARAFAEVSVEKAKEFGVKTVVLGGGVGYNELIVKTIRKIVEGRELRFLTTYEVPRGDNGINVGQAFLGGLYLEGYLNREDLSI", "soluble on expression in E. coli": "soluble"}, {"sequence": "MLAARGFFKSTRISNRFFAKKSVKNLTNDDVDVLTNPSDEYVDSFMKYHGNGRAVFKREDLAQWRDSFPDYKFKVISLKGAPRVIATAHLCTFRPIDPSINKSIMFMGFGWIDPGFRSPGTAKLQNDMCRVEMDREDDNIVSQINQPAKNFWHKLSKRKEFLDLGHKAGDVGYKTFYSAHDVVLPENLDLSGITVKNAREVPKRDIINYDQTIHPYHREKYIISHMYDRDGFGKVAYDEEGNVIGIGQAVIYENRKDCNLGPIYAENTRVAQAMFAEILKDIKASEKTVVSFEVRSGQLNKDSFCWLTPFLTHKPTRSHVCNLVYTDCVPENIDFSKVYSPTHAQLFMV", "soluble on expression in E. coli": "not soluble"}, {"sequence": "MNTDFQNILKQLGKQAQKEAAEKQAAEKNKQKQEQDFDFSQAVGQLSPLKNRQQYYAPPDKTPIKVRPKDNRADEENYFYIGSTYNDPPASFSKNGQGKNDIQRLKNGYYPVVTDVDLHGYTQEEAQKVLNEFIAFTQKRGVCGEIIHGSGLGSKGYKPVLKNMTRNWLMQHPDVLAYAEPREGNDGCVRILLKRKLRQQD", "soluble on expression in E. coli": "not soluble"}, {"sequence": "MGSDKIHHHHHHMTTSEAPQCPYHLKQSLTRRPTAGARPSAAIEVDGNGIYRIHAFQAARDILRSNSVRQAGFMSESARGVRGLGNPPVLFEEGEKHHEMRRSTARYFTPTQVAEYQPMIAALADDLIAELIRRGEMNLDDLSLRLAVNVAARVVGLTSSRVPGLERRVISFVESGGDSEPSSTQPRKSRLESLRQQAKMALFYFLDVKPAIAARRQQRQDDLISHLLDREYNDLEILTECLTYGTAGMVTTREFISVAAWHLLRNPGLRAEYVHGTEPERHAILHEILRLEPVVTMLYRRAEGELTVAGQTIPAGSLLALHLQEANTDPAVAGADAEQLCPGRTLPRGVAPQVLAFGDGHHRCPGAFLAIKESDVFLRRLLVWQDLEIVSEPEVNSNEVVKGYELRGFRVRLGRAARP", "soluble on expression in E. coli": "not soluble"}, {"sequence": "MDGEEKTYGGCEGPDAMYVKLISSDGHEFIVKREHALTSGTIKAMLSGPGQFAENETNEVNFREIPSHVLSKVCMYFTYKVRYTNSSTEIPEFPIAPEIALELLMAANFLDC", "soluble on expression in E. coli": "soluble"}, {"sequence": "MWKRLCAGLSCRKFINQVTMTSVNKNRKSRDENEMAKYNEKELADTSKFLSFVLRHKPEAIGIVLDREGWADIDKLILCAQKAGKRLTRALLDTVVATSDKKRFSYSSDGRCIRAVQGHSTSQVAISFAEKTPPQFLYHGTASRFLDEIKKQGLIAGERHYVHLSADEATARKVGARHGSPVILTVKAQEMAKRGLPFWQAENGVWLTSTVAVEFLEWLEHHHHHH", "soluble on expression in E. coli": "not soluble"}, {"sequence": "RKIGTAFVMGDVEEVMSRSSQLVINPYHGHKEADRDIKNPENWESVMEFAQIDGVFVLDENGIIIACGRYIEASAKDLVSKIKRGLGGRHIACASITKETKAIAVVVSESGGDITVYKD", "soluble on expression in E. coli": "soluble"}, {"sequence": "MFGIFDKGQKIKGTVVLMPKNVLDFNAITSIGKGGVIDTATGILGQGVSLVGGVIDTATSFLGRNISMQLISATQTDGSGNGKVGKEVYLEKHLPTLPTLGARQDAFSIFFEWDASFGIPGAFYIKNFMTDEFFLVSVKLEDIPNHGTIEFVCNSWVYNFRSYKKNRIFFVNDTYLPSATPAPLLKYRKEEFEVLRGDGTGKRKDFDRIYDYDVYNDLGNPDGGDPRPILGGCSIYPYPLRVRTGRERTRTDPNSEKPGEVYVPRDENFGHLKSSDFLTYGIKSLSHDVIPLFKSAIFQLRVTSSEFESFEDVRSLYEGGIKLPTDILSQISPLPALKEIFRTDGENVLQFPPPHVAKVSKSGVMTDEEFAREVIAGVNPNVIRRLQEFPPKSTLDPTLYGDQTSTITKEQLEINMGGVTVEEALSTQRLFILDYQDAFIPYLTRINSLPTAKAYATRTILFLKDDGTLKPLAIELSKPHPDGDNLGPESIVVLPATEGVDSTIWLLAKAHVIVNDSGYHQLVSHWLNTHAVMEPFAIATNRHLSVLHPIYKLLYPHYRDTININGLARQSLINADGIIEKSFLPGKYSIEMSSSVYKNWVFTHQALPADLVKRGLAIEDPSAPHGLRLVIEDYPYAVDGLEIWDAIKTWVHEYVSLYYPTDAAVQQDTELQAWWKEAVEKGHGDLKEKPWWPKKQTTEDLIQSCSIIVWTASALHAAVNFGQYPYGGLILNRPTLARRFIPAEGTPEYDEMVKNPQKAYLRTITPKFETLIDLSVIEILSRHASDEIYLGERETPNWTTDKKALEAFKRFGSKLTGIEGKINARNSDPSLRNRTGPVQLPYTLLHRSSEEGLTFKGIPNSISI", "soluble on expression in E. coli": "soluble"}, {"sequence": "MAHHHHHHMEAGTSPIRAGSSDGGGSVRGDIFRRHSVNSGENNMNDNKDNDSNTEWSEQFRLIARRMSRALLRNPHPDVQTDKRVMYGVLYELFEQWSERQQRAHSVSLTVEQVGSILRYGEQTLRQASLTAPALNKAQVVVDLIAASPLITIGALTQELRGLQPPVVLTPMAEVLELARLLDVSQGVRTPVGAVNLVHFIALSSTLCPAPDMGALLLLVASNVKRCHLLCAAIYYEWAMIDAQNREGLLLLSRELEEKHQQMCEGFTVDILTPLLTGSFEPFGARPTDPVAVDYLGMGSLPCTGTAEEQQRCHQLAPPSGNELEPTCEDSDTGGHGEGDCESSVEDEYDSDCRDTVDTEFWLRLSS", "soluble on expression in E. coli": "not soluble"}, {"sequence": "MGSDKIHHHHHHMYDATHLFEPPVMTEEEKMERFKERIENGEKIEADDWMPDFYRDTLIKLISMHGISEIMGALPEKEWVPKAPSLRRKLGIMAKVQDEMGHGQLLLRVVEDLMKPYGKTRADLMDDLFTGRLKFHNVFHMPTRSWADAGTIGWLVDGAAIITQTNMLGASYGPYARALQRICAEEVFHAQHGESIIMALAEGTPEQKAMIQESLDEWWESLLMFFGPASKETTGTSKQDVTIAYKIRTKTNEELRQNFFTKYVPRIRSLGLIIPDPTLRFDEETGQWIYAQPDWTEFKKIIQGGCPRSKERLALRQTSYQNNAWVREALAETIG", "soluble on expression in E. coli": "not soluble"}, {"sequence": "MSLQRFKFLMYQVVASDLDGTLLSPDHTLSPYAKETLKLLTARGINFVFATGRHHVDVGQIRDNLEIKSYMITSNGARVHDLDGNLIFAHNLDRDIASDLFGVVNDNPEIITNVYRDDEWFMNRHRPEEMRFFKEAVFNYALYEPGLLEPEGVSKVFFTCDSHEKLLPLEQAINARWGDRVNVSFSTLTCLEVMAGGVSKGHALEAVAKKLGYSLQDCIAFGDGMNDAEMLSMAGKGCIMGSAHQRLKDLHPELEVIGTNAEDAVPHYLRKLYLSEGHHHHHH", "soluble on expression in E. coli": "soluble"}, {"sequence": "MTVEVDEYLNFCGTINEFISAHMLCLGMSVNNYEHRYIWDEILTSKSIKIRPFPFEKTARRSISGMIIKDDYETTLAYNSNMGEKRKNFTISHELIHAMYHLDSENKVFTDTKDTLSYSLADILPEFQANIGASSILLPEPVLINELKKGTPPYFISNRYGISEQAIFMRLLQQMQASFEASYVAAYDTANKIMNGNSKNLAIELGRNLERKILYSNPFYEAITL", "soluble on expression in E. coli": "not soluble"}, {"sequence": "MGSDKIHHHHHHMNYLKLKQDVQAGRVAPVYFMYGTELFLMEDLIQDILSVTLSDEERDMNVSSYSLTDVPIEAALEEAETVPFFGSKRVVILKDAALFTSQKLDVEHDVKRLEQYILNPVPETVLLIMAPYEKLDERKKITKLIKKESLVLEAKPLDEGEAKAWLSSLASELQVEMDEKAIETLLGMTGLRLTQLASEMNKLALYVGEGGIIRSEDVTLLVAKTLDQNIFDLIDFAINQRTHQALSLYHELLKQKEEPLKLLALLTRQFRIMYQVKELGRRGYTPNQMAKPLKIHPYVAKLAGKKAASMSDQLLYSLIEKAADTEFAIKSGKVDKVLALELFLLTMGSRESVG", "soluble on expression in E. coli": "not soluble"}]}]}
